These results are taken from US20220227875A1 (UNIVERSITY OF FLORIDA RESEARCH FOUNDATION, published 2022).

The target in assay [1] is human thyroid-stimulating hormone receptor (TSHR) (human) (UniProt P16473). In words: cell-based or functional assay.
For assay [2], the target named is human thyroid-stimulating hormone receptor (TSHR) (human, UniProt P16473 21-764). In words: cell-based or functional assay.

Consider “recombinant thyroid-stimulating hormone (TSH) (ligand)”, for which, in assay [1], the cAMP levels in HEK-TSHR cells, EC50 is 168 ng/mL. On to thyroid-stimulating antibody M22, for which, in assay [1], the cAMP levels in HEK-TSHR cells, EC50 worked out at 42500 ng/mL.

B1: K1-70 thyroid blocking antibody (commercially available K1-70 antibody) (antibody, V domains shown)
VH: EVQLVQSGAEVKKPGQSLKISCKASGYSLTDNWIGWVRQKPGKGLEWMGIIYPGDSDTRYSPSFQGQVTISADKSINTAYLQWSSLKASDTAIYYCVGLDWNYNPLRYWGPGTLVTVSS
VL: QSVLTQPPSVSAAPGQKVTISCSGSSSDIGSNYVSWYQQFPGTAPKLLIYDNNKRPSAIPDRFSGSKSGTSATLGITGLQTGDEADYYCGTWDSRLGIAVFGGGTQLTVLG
For the molecule B1, in assay [2], the “inhibition of M22 (100 ng/ml)-induced cAMP in HEK-TSHR cells, IC50” value is 1.38 µg/mL and the “inhibition of TSH (150 ng/ml)-induced cAMP in HEK-TSHR cells, IC50” value came to 1.18 µg/mL.
